Measured values published in the supplement of paper PMC10567573.
± gives the standard deviation.

Test: protein stability index of a GFP-peptide fusion (GPS, HEK-293T) (PSI 1-6); higher = more stable
Conditions: c terminus: a fixed tail appended
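Also: 24-mer peptide tiles fused after GFP, lentivirally expressed, FACS-sorted into six equal bins by GFP/DsRed ratio, decoded by Illumina sequencing, PSI is the read-weighted mean bin number.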

Row | Sequence | protein stability index (treatment: DMSO) | protein stability index (treatment: MLN4924 1 uM, 8 h)
1 | NYTSRVWEYSSSIQNSDNDLPVVQ [TRIM29] | 3.88 ± 0.26 | 4.02 ± 0.32
2 | NYVAKNFAQALGCVLYACFILGRL [SOAT2] | 3.46 ± 0.38 | 2.85 ± 0.38
3 | PAAPGAGGGSGSAPGPSRIADYLL [TRIB1] | 4.02 ± 0.68 | 4.14 ± 0.21
4 | PAGEMKPMPLSEGKSILLFGGAAA [BCL2L13] | 3.53 ± 0.15 | 3.75 ± 0.27
5 | PCLGHTFNAGIQQAFQLPKLGALL [ZBED1] | 2.36 ± 0.37 | 2.02 ± 0.24
6 | PCLLGSRVFSQGSHAWEVALGGLQ [TRIM35] | 2.36 ± 0.15 | 2.35 ± 0.19
7 | PDLRDIELKLGRKVPESLVRSLRG [LURAP1L] | 3.16 ± 0.4 | 3.17 ± 0.41
8 | PECTRCGHGIVGTIVKARDKLYHP [PDLIM4] | 2.35 ± 0.13 | 2.56 ± 0.21
9 | PEGPEPAAPGKQPGRGHTHAAQGG [ELOA2] | 5.39 ± 0.27 | 5.51 ± 0.16
10 | PEKLIWGDQDPLSKIPFKILSGHE [WDR88] | 3.43 ± 0.85 | 3.45 ± 0.44
11 | PEMRWNKGTILKASVDYIRKLQKE [TFE3] | 2.91 ± 0.24 | 2.95 ± 0.17
12 | PEPWPGGCTGDEAESRGHSKGWGR [MYCL] | 4.18 ± 0.12 | 4.46 ± 0.56
13 | PGEPNNAGNNEHCGNIKAPSLQAW [CD207] | 4.38 ± 0.12 | 4.21 ± 0.078
14 | PGFSSLSLSDQMSVLQSVWMEVLV [ESRRA] | 2.38 ± 0.33 | 2.08 ± 0.27
15 | PGGDQGGPPVGPLSLGLATVDIQN [WAS] | 4.75 ± 0.22 | 4.71 ± 0.087
16 | PGGPCDSTLGGDIRESDPEQAPAP [TBX6] | 5.49 ± 0.16 | 5.44 ± 0.29
17 | PGKETLESALIALDSEKPKKLRFH [EHMT1] | 4.06 ± 0.24 | 4.11 ± 0.45
18 | PGNQAEHGAVTVGGTSVGSLGVPG [ZBTB22] | 4.89 ± 0.25 | 4.75 ± 0.26
19 | PGYPKMIAHDFPGIGHKVDAVFMK [MMP1] | 2.75 ± 0.17 | 3.02 ± 0.33
20 | PHFLQGGPFPLPYTAPGGYLDVGS [TBX6] | 2.93 ± 0.56 | 2.76 ± 0.33
21 | PHLMQEHMGTNVIVANTMPTHLSN [HNF4A] | 3.83 ± 0.19 | 3.97 ± 0.24
22 | PISVHCSAGVGRTGVFITLSIVLE [PTPRD] | 2.96 ± 0.26 | 2.6 ± 0.21
23 | PITRKAAQLYTLWVTFQVLLYTSL [DHCR7] | 3.07 ± 0.22 | 2.56 ± 0.51

Row | Sequence | protein stability index (treatment: DMSO) | protein stability index (treatment: MLN4924 1 uM, 8 h)
24 | PKDLDPSLCTHLIYAFAGMTNHQL [CHIT1] | 2.75 ± 0.44 | 2.46 ± 0.6
25 | PLGGGVGGQDGLGAPKDQQQPPQQ [KLHL14] | 5.31 ± 0.39 | 5.33 ± 0.26
26 | PLLLSHTLQELLARDTVQVELIPE [SNX8] | 2.71 ± 0.23 | 2.73 ± 0.31
27 | PNCLSMGSRCLKTFEVPEENTAET [ZBED1] | 4.89 ± 0.39 | 4.93 ± 0.15
28 | PPGIPPLMPGVPPLMPGMPPVMPG [ZNF207] | 3.9 ± 0.23 | 4.07 ± 0.21
29 | PPHICWDETHFGKMGSYYINRTFF [POMT2] | 2.1 ± 0.44 | 2.23 ± 0.4
30 | PPLNPTSWWADLRALARNLIFGLI [SPNS1] | 4.75 ± 0.3 | 4.74 ± 0.32
31 | PPLRLWRSVIEVPAVPEEILKRLL [DLC1] | 2.26 ± 0.46 | 2.43 ± 0.18
32 | PPPAYEPPAPAPLPPPSAPSLQPS [SCAMP3] | 5.04 ± 0.18 | 4.97 ± 0.11
33 | PPPLTSPSHGSLSHSKAPSGSQMS [NCF4] | 4.83 ± 0.23 | 4.92 ± 0.35
34 | PPQPCATACKPVIRVPSVPPVPCV [KRT36] | 2.9 ± 0.28 | 2.91 ± 0.16
35 | PPWGLGPGAGDPAPGIGPPEPWPG [MYCL] | 3.63 ± 0.39 | 3.92 ± 0.058
36 | PQCIKEEDTPSDNDSGICMSPESY [ATF4] | 5.2 ± 0.23 | 5.28 ± 0.1
37 | PQKRKPQEQLLECNKLCGRGQSRQ [SLC2A12] | 4.1 ± 0.37 | 4.4 ± 0.056
38 | PRCKTTKYRNPSLKLMVNVCGHTL [MNAT1] | 2.39 ± 0.18 | 2.31 ± 0.23
39 | PRELFPPLFMAAFDGRHSQTLKAM [PRAME] | 2.65 ± 0.41 | 2.69 ± 0.27
40 | PRKRRRNGNEEDNHLPPQTKRSSR [FAM104A] | 5.34 ± 0.16 | 5.36 ± 0.16
41 | PRPPSNPPARGTLKTSNLPEELRK [TRAF3IP2] | 4.71 ± 0.2 | 4.79 ± 0.3
42 | PRPVQLDETHPYTVTSVSCCHGNT [NEK8] | 3.94 ± 0.23 | 4.02 ± 0.14
43 | PSALFSKIRRGQFCIPEHISPKAR [TRIB1] | 2.81 ± 0.37 | 3.06 ± 0.47
44 | PSEWRPLSEGCRAELAETIVYARV [CCDC3] | 3.14 ± 0.32 | 2.51 ± 0.23
45 | PSLQPSRKLSPTEPKNYGSYSTQA [SCAMP3] | 4.4 ± 0.35 | 4.5 ± 0.22
